# Test results as given in US7070943B2 (priority 1998, dated 2006).
# B1: ONCONASE®: basic protein of 12,000 MW isolated from oocytes or early embryos of Rana pipiens, homologous to pancreatic RNase A (protein, UniProt P22069 1-104, looked up)
# Protein P-30: QDWLTFQKKHITNTRDVDCDNIMSTNLFHCKDKNTFIYSRPEPVKAICKGIIASKNVLTTSEFYLSDCNVTSRPCKYKLKKSTNKFCVTCENQAPVHFVGVGSC
# How the values were obtained:
# Assay type in all cases: cell-based, Human
# p16^INK4a = p16^INK4a expression by flow cytometry in U937 cells; conditions: U937, 170 nM, 72 hours
# Protocol: Proportions of cells in different phases of the cycle were the same as in FIG. 12;
# (§1) Following incubations in the absence or presence of ONCONASE®, the cells were washed with phosphate-buffered saline (PBS) and fixed in suspension in either ice-cold 80% ethanol or absolute methanol for up to 24 h. After fixation, the cells were washed twice with PBS and then suspended in 1 ml of 0.25% Triton X-100 (Sigma, St. Louis, Mo., USA) in PBS on ice for 5 min. The cells were then centrifuged (300 g, 5 min), the cell pellet suspended 100 μl PBS containing 0.5 μg of the anti-cyclin (or anti-CKI) mAb and 1% bovine serum albumin (BSA; Sigma), and incubated for 2 h at room temperature. […]
# (§2) Cellular fluorescence was measured with the ELITE ESP flow cytometer/cell sorter (Coulter, Miami, Fla., USA) using either argon ion laser (emission at 488 nm) alone or combined with helium-cadmium laser (emitting UV light). In the first case, fluorescence signals were collected using the standard configuration of the flow cytometer (green fluorescence, representing directly or indirectly FITC-labeled antibodies; red fluorescence representing CYCHROME® tagged anti-pRB^T mAb). In the second case, DNA content was analyzed based on DAPI fluorescence (blue emission) excited by UV light, while the anti-pRB^P− mAb (FITC) and anti-pRB^T (Cy-Chrome®) related emission was excited with blue light laser.
# p27^KIP1 = assay: Western blot of p27^KIP1 in U937 cells; conditions: U937, 17 and 170 nM, 72 h; not detected in Exp cells
# Excerpt: To reveal specificity of the antibodies that were used, a standard immunoblotting procedure was used on cellular lysates.
# cyclin D3 = assay: Cyclin D3 expression by multiparameter flow cytometry in U937 cells; conditions: U937, 170 nM
# Protocol: Anti-cyclin D3 mAb immunofluorescence in combination with DNA content was measured by multiparameter flow cytometry (a). […] There were 48%, 38% and 14% of cells in G1, S, and G2/M in Exp culture compared with 64%, 24% and 13% cells in G1, S, and G2/M, respectively, in Onc culture. The scattergrams represent bivariate distributions of the cells with respect to their cyclin D3 vs. DNA content associated fluorescence intensities. The upper level of the isotype-matched control (mean fluorescence+3 standard deviations) is marked in the Exp panel with a dashed line. The bar plots represent the mean FITC (anti-cyclin D3 mAb) fluorescence values (arbitrary units) of the cells in different phases of the cycle (gated based on differences in DNA content as shown in the Exp panel), after subtraction of the background fluorescence, i.e., mean fluorescence of the same cells but stained with isotype-matched control IgG antibody. […]
# Cellular fluorescence was measured with the ELITE ESP flow cytometer/cell sorter (Coulter, Miami, Fla., USA) using either argon ion laser (emission at 488 nm) alone or combined with helium-cadmium laser (emitting UV light). […] In the second case, DNA content was analyzed based on DAPI fluorescence (blue emission) excited by UV light, while the anti-pRB^P− mAb (FITC) and anti-pRB^T (Cy-Chrome®) related emission was excited with blue light laser.
# cyclin E = assay: Cyclin E expression by multiparameter flow cytometry in U937 cells; conditions: U937 cells growing in presence of drug
# Protocol: as §1, §2
molecule,measurement,setting,value
B1,increase in level of p16^INK4a,p16^INK4a,over six-fold
same,"p27^KIP1 bands, Western blot",p27^KIP1,strong bands
same,decrease of overall level of cyclin D3,cyclin D3; after 24 h,about 20%
same,reduction of overall level of cyclin D3,cyclin D3; after 48 hours,over 70%
same,expression of cyclin E,cyclin E,not significantly changed
